The text below walks through data of US20040229260.

In data set [1] the target is protein encoded by the partial P43 cDNA clone.
Data set [2] has as its target T1, polypeptide encoded by clone J2 (partial sequence of putative human N-acetylglucosamine-6-phosphate deacetylase).
T1 chain: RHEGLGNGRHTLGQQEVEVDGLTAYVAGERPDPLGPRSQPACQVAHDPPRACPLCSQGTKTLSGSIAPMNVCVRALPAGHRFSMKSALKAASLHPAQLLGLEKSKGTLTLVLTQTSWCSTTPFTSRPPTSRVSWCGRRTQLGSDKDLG

The target of data set [3] is protein encoded by clone B11 (cDNA insert homologous to the C-terminal end of CTP-Phosphoenolamine cytidylyltransferase), Q99447.
Data set [4] has as its target T2, protein encoded by clone L20 (identical to amino acids 104-420 of NEFA), P80303.
T2 chain: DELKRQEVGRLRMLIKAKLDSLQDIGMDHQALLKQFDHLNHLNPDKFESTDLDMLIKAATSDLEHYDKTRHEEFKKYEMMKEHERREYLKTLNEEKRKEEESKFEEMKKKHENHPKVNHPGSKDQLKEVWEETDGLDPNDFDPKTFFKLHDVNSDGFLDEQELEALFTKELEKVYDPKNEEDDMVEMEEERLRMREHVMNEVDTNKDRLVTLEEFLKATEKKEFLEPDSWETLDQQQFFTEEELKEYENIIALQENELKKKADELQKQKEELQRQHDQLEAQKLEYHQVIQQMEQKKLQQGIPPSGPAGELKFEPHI

Data set [5] has as its target T3, protein encoded by clone B33 (cDNA insert homologous to C-terminus of Nucleobindin), Q02818.
T3 chain: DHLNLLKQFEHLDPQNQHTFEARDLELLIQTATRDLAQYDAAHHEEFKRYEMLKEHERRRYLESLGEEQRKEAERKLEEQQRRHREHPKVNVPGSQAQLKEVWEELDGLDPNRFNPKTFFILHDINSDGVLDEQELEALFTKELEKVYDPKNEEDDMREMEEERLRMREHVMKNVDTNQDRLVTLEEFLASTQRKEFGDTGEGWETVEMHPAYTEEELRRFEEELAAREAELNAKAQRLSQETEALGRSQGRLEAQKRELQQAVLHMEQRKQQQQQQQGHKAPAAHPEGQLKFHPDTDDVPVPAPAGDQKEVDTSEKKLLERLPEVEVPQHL

The target in data set [6] is protein encoded by clone L12.
The target in data set [7] is T4, bacterially produced caspase-8 (in-vitro protease assay of Example 2.4), Q14790.
T4 chain: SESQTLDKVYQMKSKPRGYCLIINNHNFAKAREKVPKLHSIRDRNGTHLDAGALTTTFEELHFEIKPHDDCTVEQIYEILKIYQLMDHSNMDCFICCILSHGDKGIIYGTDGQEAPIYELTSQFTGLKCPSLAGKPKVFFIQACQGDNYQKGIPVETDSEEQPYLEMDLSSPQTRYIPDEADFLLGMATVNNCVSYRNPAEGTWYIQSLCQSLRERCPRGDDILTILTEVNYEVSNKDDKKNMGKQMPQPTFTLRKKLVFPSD

protein encoded by clone B11 (cDNA insert homologous to the C-terminal end of CTP-Phosphoenolamine cytidylyltransferase), Q99447, sequence (Q99447 213-389): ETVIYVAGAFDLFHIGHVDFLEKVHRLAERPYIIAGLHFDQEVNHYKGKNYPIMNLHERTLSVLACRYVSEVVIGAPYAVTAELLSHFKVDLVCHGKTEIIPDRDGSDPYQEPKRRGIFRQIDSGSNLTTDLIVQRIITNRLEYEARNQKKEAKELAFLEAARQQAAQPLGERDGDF

B1: caspase 3 expressed in E. coli as Histidine tagged subunit 2-subunit 1 (S2-S1) fusion protein (protein)
chain: SGISLDNSYKMDYPEMGLCIIINNKNFHKSTGMTSRSGTDVDAANLRETFRNLKYEVRNKNDLTREEIVELMRDVSKEDHSKRSSFVCVLLSHGEEGIIFGTNGPVDLKKITNFFRGDRCRSLTGKPKLFIIQACRGTELDCGIETDSGVDDDMACHKIPVEADFLYAYSTAPGYYSWRNSKDGSWFIQSLCAMLKQYADKLEFMHILTRVNRKVATEFESFSFDATFHAKKQIPCIVSMLTKELYFYH
Regarding B1, the “cleavage in the protease assay with bacterial lysate (1 or 4 RU)” value in data set [1] is recorded as “it was not cleaved by caspase-3 nor by caspase-9”.

B2: bacterially produced caspase-8 (in-vitro protease assay of Example 2.4) (protein)
chain: SESQTLDKVYQMKSKPRGYCLIINNHNFAKAREKVPKLHSIRDRNGTHLDAGALTTTFEELHFEIKPHDDCTVEQIYEILKIYQLMDHSNMDCFICCILSHGDKGIIYGTDGQEAPIYELTSQFTGLKCPSLAGKPKVFFIQACQGDNYQKGIPVETDSEEQPYLEMDLSSPQTRYIPDEADFLLGMATVNNCVSYRNPAEGTWYIQSLCQSLRERCPRGDDILTILTEVNYEVSNKDDKKNMGKQMPQPTFTLRKKLVFPSD
Regarding B2, the cleavage in vitro result was “The polypeptide encoded by Clone J2 is cleaved in-vitro by caspase-8” in data set [2]; “Clone L20 is cleaved by caspase 8 both in-vitro and in-vivo” in data set [4]; “Clone B33 was cleaved by caspase-8 both in-vitro and in-vivo” in data set [5]. The “cleavage in the in-vitro protease assay” value in data set [3] is “Clone B11 was cleaved in-vitro by caspase-8 as demonstrated in the assay described in the above-mentioned Example 2.4”. In data set [6], the “cleavage in the in-vitro protease assay (35S labeled protein, SDS-PAGE, autoradiography)” value is “Clone L12 is cleaved in-vitro by caspase-8 as shown by an in-vitro protease assay”.

B3: caspase 9 expressed in E. coli as Histidine tagged subunit 2-subunit 1 (S2-S1) fusion protein (protein)
chain: GALESLRGNADLAYILSMEPCGHCLIINNVNFCRESGLRTRTGSNIDCEKLRRRFSSLHFMVEVKGDLTAKKMVLALLELAQQDHGALDCCVVVILSHGCQASHLQFPGAVYGTDGCPVSVEKIVNIFNGTSCPSLGGKPKLFFIQACGGEQKDHGFEVASTSPEDESPGSNPEPDATPFQEGLRTFDQLDAISSLPTPSDIFVSYSTFPGFVSWRDPKSGSWYVETLDDIFEQWAHSEDLQSLLLRVANAVSVKGIYKQMPGCFNFLRKKLFFKTS
In the case of B3, the “cleavage in the protease assay with bacterial lysate (1 or 4 RU)” value in data set [1] is given as “it was not cleaved by caspase-3 nor by caspase-9”.

B4: protein encoded by clone L5 (Tip60, Tat interacting protein 60 kDa, lacking amino acids 94 to 145) (protein)
chain: MAEVGEIIEGCRLPVLRRNQDNEDEWPLAEILSVKDISGRKLFYVHYIDFNKRLDEWVTHERLDLKKIQFPKKEAKTPTKNGLPGSRPGSPEREVKRKVEVVSPATPVPSETAPASVFPQNGAARRAVAAQPGRKRKSNCLGTDEDSQDSSDGIPSAPRMTGSLVSDRSHDDIVTRMKNIECIELGRHRLKPWYFSPYPQELTTLPVLYLCEFCLKYGRSLKCLQRHLTKCDLRHPPGNEIYRKGTISFFEIDGRKNKSYSQNLCLLAKCFLDHKTLYYDTDPFLFYVMTEYDCKGFHIVGYFSKEKESTEDYNVACILTLPPYQRRGYGKLLIEFSYELSKVEGKTGTPEKPLSDLGLLSYRSYWSQTILEILMGLKSESGERPQITINEISEITSIKKEDVISTLQYLNLINYYKGQYILTLSEDIVDGHERAMLKRLLRIDSKCLHFTPKDWSKRGKW
On to B4, for which, in data set [7], the “cleavage in the in-vitro protease assay” value was “Clone L5 was cleaved in-vitro by caspase-8 in the in-vitro protease assay described in Example 2.4”.
